# Experimental data taken from publication PMC12342132, “Mechanistic insights into the GEF activity of the human MON1A/CCZ1/C18orf8 complex” (Protein & Cell, 2025).
# T1: C18orf8 (1–657) (human, UniProt Q96DM3 1-657)
# T1 construct: Subunit of m3, written alone for the pairwise contacts in the structure
# T1 sequence (looked up): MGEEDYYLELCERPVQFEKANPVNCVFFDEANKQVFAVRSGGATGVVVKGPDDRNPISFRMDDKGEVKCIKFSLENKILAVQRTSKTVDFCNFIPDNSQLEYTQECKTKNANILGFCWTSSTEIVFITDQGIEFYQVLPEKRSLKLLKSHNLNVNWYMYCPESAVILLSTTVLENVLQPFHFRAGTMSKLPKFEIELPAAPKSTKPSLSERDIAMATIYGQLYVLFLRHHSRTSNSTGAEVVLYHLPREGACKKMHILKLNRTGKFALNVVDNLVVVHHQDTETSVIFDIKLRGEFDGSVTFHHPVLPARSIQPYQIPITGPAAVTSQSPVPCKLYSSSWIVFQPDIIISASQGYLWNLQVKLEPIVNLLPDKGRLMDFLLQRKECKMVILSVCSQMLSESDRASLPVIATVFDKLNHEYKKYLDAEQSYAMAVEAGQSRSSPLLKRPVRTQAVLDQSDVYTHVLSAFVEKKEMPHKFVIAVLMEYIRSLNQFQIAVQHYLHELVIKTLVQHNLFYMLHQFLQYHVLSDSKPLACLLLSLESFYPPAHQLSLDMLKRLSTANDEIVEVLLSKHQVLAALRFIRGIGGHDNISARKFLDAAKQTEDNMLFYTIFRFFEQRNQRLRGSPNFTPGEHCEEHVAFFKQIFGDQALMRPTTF
# B1: CCZ1 (1–482) (natural protein, human, UniProt P86791 1-482, looked up)
# chain: MAAAAAGAGSGPWAAQEKQFPPALLSFFIYNPRFGPREGQEENKILFYHPNEVEKNEKIRNVGLCEAIVQFTRTFSPSKPAKSLHTQKNRQFFNEPEENFWMVMVVRNPIIEKQSKDGKPVIEYQEEELLDKVYSSVLRQCYSMYKLFNGTFLKAMEDGGVKLLKERLEKFFHRYLQTLHLQSCDLLDIFGGISFFPLDKMTYLKIQSFINRMEESLNIVKYTAFLYNDQLIWSGLEQDDMRILYKYLTTSLFPRHIEPELAGRDSPIRAEMPGNLQHYGRFLTGPLNLNDPDAKCRFPKIFVNTDDTYEELHLIVYKAMSAAVCFMIDASVHPTLDFCRRLDSIVGPQLTVLASDICEQFNINKRMSGSEKEPQFKFIYFNHMNLAEKSTVHMRKTPSVSLTSVHPDLMKILGDINSDFTRVDEDEEIIVKAMSDYWVVGKKSDRRELYVILNQKNANLIEVNEEVKKLCATQFNNIFFLD
# notes: human CCZ1, residues 1-482; Subunit of m3, written alone for the pairwise contacts in the structure
# Experiments:
# C18orf8 (1–657) = biological target: T1, C18orf8 (1–657); experiment: cryo-EM structure; MON1A (235–652)/CCZ1 (1–482)/C18orf8 (1–657)/Rab7A (1–181) T22N complex, 3.41 Å; details: both partners purified
# CCZ1 (1–482) = biological target: B1; experiment: as above; details: both partners purified
binding result (C18orf8 (1–657)),binding result (CCZ1 (1–482)),Binder
binds,,B1
binds,binds,"MON1A (235–652) (domain or fragment, human, UniProt Q86VX9 235-652, looked up, Subunit of m3, written alone for the pairwise contacts in the structure) GTTEGDEEDATEAWRLHQKHVFVLSEAGKPVYSRYGSEEALSSTMGVMVALVSFLEADKNAIRSIHADGYKVVFVRRSPLVLVAVARTRQSAQELAQELLYIYYQILSLLTGAQLSHIFQQKQNYDLRRLLSGSERITDNLLQLMARDPSFLMGAARCLPLAAAVRDTVSASLQQARARSLVFSILLARNQLVALVRRKDQFLHPIDLHLLFNLISSSSSFREGEAWTPVCLPKFNAAGFFHAHISYLEPDTDLCLLLVSTDREDFFAVSDCRRRFQERLRKRGAHLALREALRTPYYSVAQVGIPDLRHFLYKSKSSGLFTSPEIEAPYTSEEEQERLLGLYQYLHSRAHNASRPLKTIYYTGPNENLLAWVTGAFELYMCYSPLGTKASAVSAIHKLMRWIRKEEDRLFILTPLTY"
